From article doi:10.1101/2020.05.30.125013

B1: MlaB from Acinetobacter baumannii (natural protein)
chain: MVQYLNQELVVSGKIDFENAEQQYQAGLAIIKKQTSFPLIVDLKQLEHGNTLALAVLVQWLRQTPQKSGLHFKNVPEKMLKIIQACHLQEDLHLV

How the values were obtained:
[1] = biological target: MlaD from Acinetobacter baumannii (Acinetobacter baumannii) (UniProt V5V921); assay: cryo-EM structure
[2] = biological target: MlaF from Acinetobacter baumannii (Acinetobacter baumannii); assay: cryo-EM structure

Molecule | stoichiometry N [1] | percent of particles with MlaB bound to both MlaF copies [2]
MlaD from Acinetobacter baumannii (from UniProt V5V921 1-226) (natural protein) | 6 | –
B1 | – | 50%
